Experimental data from publication PMC3081313, “Factors Defining the Functional Oligomeric State of Escherichia coli DegP Protease” (PLoS ONE, 2011).

B3: proteolytically inactive DegP_(S210A) (enzyme, Escherichia coli, UniProt P0C0V0 27-474, looked up)
chain: AETSSATTAQQMPSLAPMLEKVMPSVVSINVEGSTTVNTPRMPRNFQQFFGDDSPFCQEGSPFQSSPFCQGGQGGNGGGQQQKFMALGSGVIIDADKGYVVTNNHVVDNATVIKVQLSDGRKFDAKMVGKDPRSDIALIQIQNPKNLTAIKMADSDALRVGDYTVAIGNPFGLGETVTSGIVSALGRSGLNAENYENFIQTDAAINRGNAGGALVNLNGELIGINTAILAPDGGNIGIGFAIPSNMVKNLTSQMVEYGQVKRGELGIMGTELNSELAKAMKVDAQRGAFVSQVLPNSSAAKAGIKAGDVITSLNGKPISSFAALRAQVGTMPVGSKLTLGLLRDGKQVNVNLELQQSSQNQVDSSSIFNGIEGAEMSNKGKDQGVVVNNVKTGTPAAQIGLKKGDVIIGANQQAVKNIAELRKVLDSKPSVLALNIQRGDSTIYLLMQ
notes: Escherichia coli DegP (HtrA, protease Do), periplasmic protease and chaperone, with the active-site change S210A; Number of copies depends on the sample: hexamer alone, 12-mer or 24-mer with substrate; also called HtrA_(S210A); DegP6

How the values were obtained:
[1] = target: B3; assay: SEC; DegP_(S210A) (94 µM) mixed with P^+Z^+ peptide (376 µM), 37°C 10 min; Superdex 200 in 50 mM HEPES pH 7.3, 150 mM NaCl at 4°C; details: both partners purified
[2] = target: B3; assay: SEC; DegP_(S210A) (94 µM) mixed with P^−Z^+ peptide (376 µM), 37°C 10 min; Superdex 200 in 50 mM HEPES pH 7.3, 150 mM NaCl at 4°C; details: both partners purified
[3] = target: the molecule itself; assay: SEC; DegP_(S210A) (42 µM) mixed with full-length β-casein (42 µM; also in molar excess), 37°C 10 min in 50 mM HEPES pH 7.3; Superdex 200 in 50 mM HEPES pH 7.3, 150 mM NaCl at 4°C; peak fractions on SDS-PAGE
[4] = target: the molecule itself; assay: SEC; DegP_(S210A) mixed with MDH peptide fragments, 37°C 10 min; Superdex 200 in 50 mM HEPES pH 7.3, 150 mM NaCl at 4°C
[5] = target: the molecule itself; assay: SEC; DegP_(S210A) alone (42 µM monomer), incubated in 50 mM HEPES pH 7.3 at 37°C for 10 min; Superdex 200 10/300 GL in 50 mM HEPES pH 7.3, 150 mM NaCl at 4°C

B1: PZ model peptide P^+Z^+ (peptide)
peptide: ALVLDMMYGGMRGYQV
notes: also called PepP^+Z^+; source: synthetic peptide (GenScript USA Inc.)
binding result [1]: binds

B2: PZ model peptide P^−Z^+ (peptide)
peptide: ALELDMMYGGMRGYQV
notes: as P^+Z^+ but the P motif altered from ALV to ALE; source: synthetic peptide (GenScript USA Inc.)
binding result [2]: binds

B3
stoichiometry N [3]: 24 | stoichiometry N [4]: 12 | stoichiometry N [5]: 6
